The chains are these.
B1: CPEB3 Ribozyme (parent)
chain: GGGGGCCACAGCAGAAGCGUUCACGUCGCGGCCCCUGUCAGAUUCUGGUGAAUCUGCGAAUUCUGCUGU

The data set covers variants of B1. The data set is described as follows: self-cleavage, relative activity (ratio to wild type); higher = more cleavage; co-transcriptional.
Turning to GGGAGCCACAGCAGAAGCGUUCACGUCGCGGCCCCUGUCAGAUUCUGGUGAAACUGCGAAUUCUGCUGU, the self-cleavage was determined as 0.602.
Take GGGAGCCACAGCAGAAGCGUUCACGUCGCGGCCCCUGUCAGAUUCUGGUGAAGCUGCGAAUUCUGCUGU: the self-cleavage was determined as 0.517.
For GGGAGCCACAGCAGAAGCGUUCACGUCGCGGCUCCUGUCAGAUUCUGGUGAAUCUGCGAAUUCUGCUGU the value was 0.968; for GGGAGCCACAGCAGAAGCGUUCACGUCGCGGCACCUGUCAGAUUCUGGUGAAUCUGCGAAUUCUGCUGU, 0.897.
In the case of GGGAGCCACAGCAGACGCGUUCACGUCGCGGCCCCUGUCAGAUUCUGGUGAAUCUGCGAAUUCUGCUGU it was 0.0992; in that of GGGAGCCACUGCAGAAGCGUUCACGUCGCGGCCCCUGUCAGAUUCUGGUGAAUCUGCGAAUUCUGCUGU, 0.941; in that of GGGAGCGACAGCAGAAGCGUUCACGUCGCGGCCCCUGUCAGAUUCUGGUGAAUCUGCGAAUUCUGCUGU, 0.0338.
Take GGGAGCCACAGCAGAAGCGUUCACGUCGCGGCCCCUGUCACAUUCUGGUGAAUCUGCGAAUUCUGCUGU: the self-cleavage turned out to be 0.341.
Consider GGGAGCCACAGCAGAAGCGUUCACGUCGCGGCCCCUGUCAUAUUCUGGUGAAUCUGCGAAUUCUGCUGU, for which the self-cleavage worked out at 0.525.
Consider GGGAGCCACAGCAGAAUCGUUCACGUCGCGGCCCCUGUCAGAUUCUGGUGAAUCUGCGAAUUCUGCUGU, for which the self-cleavage is 0.145.
In the case of GGGAGCCACAGCAGAAGCGUUCACGUCGCGGCCCCUGUCAGAUUCUGGUGAAUCUACGAAUUCUGCUGU it was 0.604.
For GGGAGCCACAGCAGAAGCGUUCACGUCGCGGCCCCUGUCAGAUUCUGGUGAAUCUGCGAAUUCUGCUCU the value was 0.959.
Regarding GGGAGCCACAGCAGAAGCGUUCACGUCGCGGCCCCUGUCAGAUUCUGGUGAAUCUGCGAAUUCUGCUAU, the self-cleavage worked out at 0.999.
Regarding GGGAGCCACAGCAGAAGCGUUCACGUCGCGGCCCCUGUCAGAUUCUGGUGAAUCUGCGAACUCUGCUGU, the self-cleavage was found to be 0.433.
For GGGAGCCACAGCAGAAGCGUUCACGUCGCGGCCCCUGUCAGAUUCUGGUGAAUCAGCGAAUUCUGCUGU the value was 0.636; for GGGAGCCACAGCAGAAGCGUUCACGUCGCGGCCCCUGUCAGAUUCUGGUGAAUCCGCGAAUUCUGCUGU, 0.351; for GGGAGCCACAGCGGAAGCGUUCACGUCGCGGCCCCUGUCAGAUUCUGGUGAAUCUGCGAAUUCUGCUGU, 0.88.
In the case of GGGAGCCACAGCAGAAGCGUUCACGUCGCGACCCCUGUCAGAUUCUGGUGAAUCUGCGAAUUCUGCUGU it was 0.227.
In the case of GGGAGCCACAGCAGAAGCGUUAACGUCGCGGCCCCUGUCAGAUUCUGGUGAAUCUGCGAAUUCUGCUGU it was 0.087; in that of GGGAGCCACAGCAGAAGCGUUCACGUGGCGGCCCCUGUCAGAUUCUGGUGAAUCUGCGAAUUCUGCUGU, 0.119.
Take GGGAGCCACAGCAGAAGCGUUCACGUCGCGGGCCCUGUCAGAUUCUGGUGAAUCUGCGAAUUCUGCUGU: the self-cleavage came out at 0.171.
In the case of GGGAGCCACAGCAGAAGCGUUCACGUCGCGGUCCCUGUCAGAUUCUGGUGAAUCUGCGAAUUCUGCUGU it was 0.495; in that of GGGAGCCACAGCAGAAGCGUUCACGUCGCGGCCCCUGUCAGUUUCUGGUGAAUCUGCGAAUUCUGCUGU, 0.721.
For GGGAGCCACAGCAGAAGCGUUCACGUCGCGGCCCCUGUCAGAUUCUGGUGAAUUUGCGAAUUCUGCUGU the value was 0.776; for GGGAGCCACAGCAGAAGCGUUCACGUCGCGGCCCCUGUCAGAUUCUGGUGAAUAUGCGAAUUCUGCUGU, 0.457.
For GGGAGCCACAGCAGAAGCGUUCCCGUCGCGGCCCCUGUCAGAUUCUGGUGAAUCUGCGAAUUCUGCUGU, the self-cleavage is 0.573.
In the case of GGGAGCCACAGCAGAAGCGUUCACGUCGCGGCCCCUGUCAGAUUGUGGUGAAUCUGCGAAUUCUGCUGU it was 0.691; in that of GGGAGCCACAGCAGAAGCGUUCACGUCGCGGCCCCUGCCAGAUUCUGGUGAAUCUGCGAAUUCUGCUGU, 0.699; in that of GGGAGCCACAGCAGAAGCGUACACGUCGCGGCCCCUGUCAGAUUCUGGUGAAUCUGCGAAUUCUGCUGU, 0.793.
In the case of GGGCGCCACAGCCGAAGCGUUCACGUCGCGGCCCCUGUCAGAUUCUGGUGAAUCUGCGAAUUCUGCUGU, the self-cleavage turned out to be 0.216.
With GGGAGCCACAGCAGAAGCGUUCACGUCGCGGCCGCUGUCAGAUUCUGGUGAAUCUGCGAAUUCUGCUGU, the self-cleavage was determined as 0.16.
For GGGAGCCACAGCAGAAGCGUUCACGUCGCGGCCCCUGUCAGAUUCUGGUGAAUCUGCGAAUUCCGCUGU the value was 0.696.
Regarding GGGAGCCACAGCAGAAGCGUUCACGUCGCGGCCCCUGUCAGAUUCUGGUGAAUCUGCGAAUUCGGCUGU, the self-cleavage is 0.672.
With GGGAGCCACAGCAGAAGCGUUCACGUCGCGGCCCCUGUCAGAUUCUGGUGAAUCUGCGAAUUCAGCUGU, the self-cleavage came out at 0.7.
In the case of GGGAGCCACAGCAGAAGCGCUCACGUCGCGGCCCCUGUCAGAUUCUGGUGAAUCUGCGAAUUCUGCUGU it was 0.128; in that of GGGAGCCACAGCAGAAGCGUUCACGUCGAGGCCCCUGUCAGAUUCUGGUGAAUCUGCGAAUUCUGCUGU, 0.226; in that of GGGAGCCACAGCAGAAGCGUUCACGUCGCGGCCCCUGUCAGAUUCUGGUGAAUCUGCGAAUACUGCUGU, 0.601.
Consider GGGAGCCACAGCAGAAGCGUUCACGUCGCGGCCCCUGUCAGAUUCUGGUGAAUCUGCGAAUGCUGCUGU, for which the self-cleavage was 0.419.
For GGGAGCCACAGCAGAAGCGUUCACGUCGCGGCCCCUGUCAGAUUCUGGUGAAUCUGCGAAUUCUGCUGC the value was 1.04; for GGGAGCCACAGCAAAAGCGUUCACGUCGCGGCCCCUGUCAGAUUCUGGUGAAUCUGCGAAUUCUGCUGU, 0.401.
In the case of GGGAGCCACAGCAGAAGCGUUCACGUCACGGCCCCUGUCAGAUUCUGGUGAAUCUGCGAAUUCUGCUGU it was 0.117; in that of GGGAGCCACAGCAGAAGCAUUCACGUCGCGGCCCCUGUCAGAUUCUGGUGAAUCUGCGAAUUCUGCUGU, 0.092.
Consider GGGAGCCACAGCAGAAGCGUUCACGUCGCGGCCCCUGUCAGAUUCUUGUGAAUCUGCGAAUUCUGCUGU, for which the self-cleavage stood at 0.899.
For GGGAGCCACAGCAGAAGCGUUCACGUCGCGGCCCCAGUCAGAUUCUGGUGAAUCUGCGAAUUCUGCUGU the value was 0.13; for GGGAGGCACAGCAGAAGCGUUCACGUCGCGGCCCCUGUCAGAUUCUGGUGAAUCUGCGAAUUCUGCUGU, 0.07; for GGGAGUCACAGCAGAAGCGUUCACGUCGCGGCCCCUGUCAGAUUCUGGUGAAUCUGCGAAUUCUGCUGU, 0.426.
Take GGGCGCCACAGCAGAAGCGUUCUCGUCGCGGCCCCUGUCAGAUUCUGGUGAAUCUGCGAAUUCUGCUGU: the self-cleavage stood at 0.801.
With GGGCGCCACCGCAGAAGCGUUCACGUCGCGGCCCCUGUCAGAUUCUGGUGAAUCUGCGAAUUCUGCUGU, the self-cleavage was 0.844.
In the case of GGGCGCCACGGCAGAAGCGUUCACGUCGCGGCCCCUGUCAGAUUCUGGUGAAUCUGCGAAUUCUGCUGU it was 0.748.
On to GGGAGCCACAGCAGAAGCGUUCACGUCGCGGCCCCUGUCAGAUUCUGGUGAAUCUGCGAAUUGUGCUGU, for which the self-cleavage turned out to be 0.521.
Take GGGAGCCACAGCAGAAGCGUUCACGUCGCGGCCCCUGUCAGAUUCUGGUGAAUCUGCGAAUUAUGCUGU: the self-cleavage was found to be 0.483.
For GGGCGCCACAGCAGAAGCGUUCACGUCGCGGCCCCUGUCAGAUUCUGGUGAUUCUGCGAAUUCUGCUGU the value was 0.603; for GGGAGCCACAGCAGAAGCGUUCACGUCGCGGCCCCUGUCAGAUUCUGGUGAAUCUGCGAAUUCUGGUGU, 0.799.
For GGGAGCCACAGCAGAAGCGUUCACGUCGCGGCCCCUGUCGGAUUCUGGUGAAUCUGCGAAUUCUGCUGU the value was 0.773; for GGGAGCCACAGCAGAAGCGUUCACGUCGCGGCCCCUGUCUGAUUCUGGUGAAUCUGCGAAUUCUGCUGU, 0.48; for GGGCGCCACAGCAGUAGCGUUCACGUCGCGGCCCCUGUCAGAUUCUGGUGAAUCUGCGAAUUCUGCUGU, 0.0935.
As to GGGAGCCACAGUAGAAGCGUUCACGUCGCGGCCCCUGUCAGAUUCUGGUGAAUCUGCGAAUUCUGCUGU, the self-cleavage is 0.876.
For GGGAGCCACAGCAGAAGCGUUCACGUCGCGGCCCCUGUCAGAUUCUGGAGAAUCUGCGAAUUCUGCUGU the value was 0.852.
In the case of GGGAUCCACAGCAGAAGCGUUCACGUCGCGGCCCCUGUCAGAUUCUGGUGAAUCUGCGAAUUCUGCUGU it was 0.0889; in that of GGGAGCCACAGCAGAAGCGUUCACGUCGCGGCCCUUGUCAGAUUCUGGUGAAUCUGCGAAUUCUGCUGU, 0.244; in that of GGGCGCCACAGCAGAUGCGUUCACGUCGCGGCCCCUGUCAGAUUCUGGUGAAUCUGCGAAUUCUGCUGU, 0.197.
In the case of GGGCGCCACAGCAGACGCGUUCACGUCGCGGCCCCUGUCAGAUUCUGGUGAAUCUGCGAAUUCUGCUGU it was 0.0339.
GGGAGCCACAGCAGAAGCGUUCACGUCGCGGCCCCUGUCAGAUUCUGGUGACUCUGCGAAUUCUGCUGU: the self-cleavage worked out at 0.763.
For the variant GGGAGCCACAGCAGAAGCGUUCACGUCGCGGCCCCUGUCAGAUUCUGGUGAGUCUGCGAAUUCUGCUGU, the self-cleavage was found to be 0.864.
With GGGAGCCACAGCAGAAGCGUUCACGUCGCGGCCCCUGUGAGAUUCUGGUGAAUCUGCGAAUUCUGCUGU, the self-cleavage turned out to be 0.717.
In the case of GGGAGCCACAGCAGAAGCGUUCACGUCGCGGCCCCUGUCAGAUUCUGGUGAAUCUGCGAAUUCUGCUGU it was 0.898.
For GGGCGCCACAGCAGAAGCGUUCACGUCGCGGCCCCUGUCAGAUUCUGGUGAAUCUGCGAAUUCUGCUGU the value was 0.69; for GGGAGCCACAGCAGAAGCGUUCACCUCGCGGCCCCUGUCAGAUUCUGGUGAAUCUGCGAAUUCUGCUGU, 0.114; for GGGCGCCACAGCAGAAGCGUUCACGUCGCGGCCCCUGUCAGGUUCUGGUGAAUCUGCGAAUUCUGCUGU, 0.667.
As for GGGAGCCACAGCAGAAGCGUUCACGUCGCGGCCCCUGUCAGAUUCGGGUGAAUCUGCGAAUUCUGCUGU, the self-cleavage was 0.841.
In the case of GGGAGCCACAGCAGAAGCGUUCACGUCGCGGCCCCUGUCAGAUUCAGGUGAAUCUGCGAAUUCUGCUGU it was 0.899.
In the case of GGGAGCCACAGCAGAAGCGUUCACGUCGCGGCCCCUGUCAGAUUCUGGUGAAUCUGCCAAUUCUGCUGU it was 0.701.
Take GGGAGCCACAGCAGAAGCGUUCACGUCGCGGCCCCUGUCAGAUUCUGGUGGAUCUGCGAAUUCUGCUGU: the self-cleavage is 0.787.
In the case of GGGAGCCACAGCAGAAGCGUUCACGUCGCGGCCCCUGUCAGAUUCUGGUGCAUCUGCGAAUUCUGCUGU it was 0.702.
For GGGAGCCACAGCAGAAGCGUUCACGGCGCGGCCCCUGUCAGAUUCUGGUGAAUCUGCGAAUUCUGCUGU the value was 0.504; for GGGAGCCACAGCAGAAGCGUUCACGACGCGGCCCCUGUCAGAUUCUGGUGAAUCUGCGAAUUCUGCUGU, 0.604; for GGGAGCCACAGCAGAAGCGUUCACGUCGCGGCCCCUGUCAGAUUCUGUUGAAUCUGCGAAUUCUGCUGU, 0.919.
On to GGGAGCCACAGCAGAAGCGUUCACGUCGCGGCCCCUGUCAGAUUCUGCUGAAUCUGCGAAUUCUGCUGU, for which the self-cleavage came out at 0.802.
